Assay results taken from patent US20170204445A1, “IN VIVO SITE-SPECIFIC PROTEIN TAGGING USING ENGINEERED SORTASE VARIANTS” (priority 2016, published 2017).

Biological target: Biotin-Lysozyme (hen) (UniProt P00698)
Experiment: flow
Conditions: scFv

Chain of Biotin-Lysozyme (hen) (P00698 19-147): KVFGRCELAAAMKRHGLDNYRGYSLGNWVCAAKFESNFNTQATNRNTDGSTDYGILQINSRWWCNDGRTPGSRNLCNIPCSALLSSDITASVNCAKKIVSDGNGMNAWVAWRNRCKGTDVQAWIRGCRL

Kd	Substance
0.5 nM	scFv D1.3 (from UniProt P42212 1-238; P32781 19-87)
0.5 nM	scFv D1.3 (from UniProt P32781 19-87)
